Laboratory results published in article doi:10.1101/2020.10.13.337493 (bioRxiv, 2020).

B2: N-PH-FFAT construct of OSBP (domain or fragment, human, UniProt P22059 1-408, looked up)
chain: MAATELRGVVGPGPAAIAALGGGGAGPPVVGGGGGRGDAGPGSGAASGTVVAAAAGGPGPGAGGVAAAGPAPAPPTGGSGGSGAGGSGSAREGWLFKWTNYIKGYQRRWFVLSNGLLSYYRSKAEMRHTCRGTINLATANITVEDSCNFIISNGGAQTYHLKASSEVERQRWVTALELAKAKAVKMLAESDESGDEESVSQTDKTELQNTLRTLSSKVEDLSTCNDLIAKHGTALQRSLSELESLKLPAESNEKIKQVNERATLFRITSNAMINACRDFLMLAQTHSKKWQKSLQYERDQRIRLEETLEQLAKQHNHLERAFRGATVLPANTPGNVGSGKDQCCSGKGDMSDEDDENEFFDAPEIITMPENLGHKRTGSNISGASSDISLDEQYKHQLEETKKEKRTR

Columns and labels:
[1] = target: OSBP Central Core (CC), wild type (human) (UniProt P22059); assay: SEC
[2] = target: OSBP CC[V199C] construct (V199C/C224A/C276A), labelled with AF-488 or AF-568 (human) (UniProt P22059); assay: FRET or BRET
[3] = target: B2; assay: membrane tethering in reconstituted contact sites, seen by cryo-EM and cryo-ET
[4] = target: the molecule itself; assay: cryo-EM structure

Work on “OSBP Central Core (CC), wild type (from UniProt P22059 199-324) (domain or fragment)” yielded a stoichiometry N [1] of 2.

Molecule “OSBP CC[V199C] construct (V199C/C224A/C276A), labelled with AF-488 or AF-568 (from UniProt P22059 199-324) (domain or fragment)” has a half-time of monomer exchange [2] of 100 min.

B1: VAP-A (natural protein, human, UniProt Q9P0L0 8-249, looked up)
chain: MAKHEQILVLDPPTDLKFKGPFTDVVTTNLKLRNPSDRKVCFKVKTTAPRRYCVRPNSGIIDPGSTVTVSVMLQPFDYDPNEKSKHKFMVQTIFAPPNTSDMEAVWKEAKPDELMDSKLRCVFEMPNENDKLNDMEPSKAVPLNASKQDGPMPKPHSVSLNDTETRKLMEECKRLQGEMMKLSEENRHLRDEGLRLRKVAHSDKPGSTSTASFRDNVTSPLPSLLVVIAAIFIGFFLGKFIL
In the case of B1, the binding result [3] is reported as “binds” and the “stoichiometry N” value [4] is reported as 2.

B2 was tested, and the “stoichiometry N” value [4] was 2.
